These results are taken from the DeepSol protein solubility set.

A short description of this data set: soluble on expression in E. coli; label from the status in PepcDB or PDB records.
For “MGSDKIHHHHHHMHWRGEYSCLSDSWRVSTQEDGGRLQMLTFRSARPEDEDALYAISLATGDAGQDATPLYNDGRMVGHIYSVPYLRLWPDAVFVAEDEEGVCGYIAGALDTVLHEQRLEQEWWPHLRALYPDPGGDPQTWDADQRRAHFIHHPRNTPSWLTDPFPAHIHMNLLPRTQGKGGGTRLLSRWLDMARQNNVYGIHLGASERNHAGMRFWETRGFKHLDSHETPGSVWFGMALE”, the “soluble on expression in E. coli” value is “not soluble”.
For the sequence “MGSDKIHHHHHHMVKYSGVCILFGAGGGGENALSLLKLEGCNISAIVDNDLKKHNTFLDDTPIYAPEKLNCDLIFDKILIASGYSKSILAQLGQYNISQERIIVLPQYYLKPNRFSDQVLYSLAWDFIFSFSELMNKLNIRYWLDYGTLLGLVRDNDLISWDSDLDFCILDENKGYLINSFSVISEHISSTIGCDVKIELIKGAECEHSRVFISCNRDNVILDIDVFIKFNFSNFVCLEVMDRVERYNAEHYVAVDFLNVKGISLPVPNKYDQYLTRVYGSWCVANKEWTLYS”, the “soluble on expression in E. coli” value was “not soluble”.
Under “MTSQPLRVGIGGPVGSGKTALTLALCRELRERYNLAVVTNDIYTQEDAEFLVRNEALAPERIIGVETGGCPHTAIREDASINLEAVDQLNRRFPGLELILVESGGDNLSATFSPELSDLTLYVIDVSAGDKIPRKGGPGICKSDLLVINKIDLAPLVGASLDVMDRDARRMRGDKPFVFSNQKTGQGLDEIIAFIERQGLLTAA” stands “not soluble”.
As for “MSLNSKKETINIGCSLPLTGEGANYGRSVKEGVDLAIEEINQSEMFDLPLKVIYEDDKMDPREGVNAINKLITADNVPIIIGPFGSSITLAVAPIANKNKVVLLGASATADNIKDAGDYIFRITPPNSKQGNDVASFCFNSLNSKKAAIIYQTNDYGTTLKTAFESEYLKLGGEVLIVEGVDLGNKDFKTQILKIKSKQVDVVFFPLHVAESGNFLKQSKELGLNVKFISCDGAMVDDLLKLAGNAAEGTYYTSLALAYGMNDSLINSFNTNFKKKYNKEPDVYAAYYYEVTYILAHALKKANGNIGQIKEILYSINGENAYNGITGLTSFDTYGEVDKSFSIYVVSNNKFSLFKEGHHHHHH”, the “soluble on expression in E. coli” value was “soluble”.
In the case of “MSLNNKIKPSILPGFMELLPKEQLVFNDIVSKITGVYEQNGFLPMDTPIIEKEEVLLAKSAGETEKQVYRIDNEDRKQVLRFDLTVPFSRFAAQYMSDLTFPFKRYQLGKVYRGERNQKGRYREFYQCDVDVVGNGNLSIKNDAFIINMASKALRKIGLDSYKFQISNRKILTGVLEGLNITNMQEVMILIDKYDKITEEQFLSELNKLIGEEKAKVISKVIKISGSSDEVVENLKKVEIKNEMLEKGIEEVEEVIKYLKLFGVEDSEYAINLKIIRGLDYYTGTVFETLLTGNESYGSICSGGRYDNLAQNYTENVLPGVGMSIGITRLFFVLREIGFIENYNSSLNEKYLIVPIGDTFEYCTKILNKLLVNGKSAEIYFEEGKLKKKLTYANKLDIKYVILIGEDEVTNKELVIKDMITGEQKKLNIEEIEGHHHHHH” it was “soluble”.
“MARLLEEHGFETKTNVIVQGNCVEQEIDVVAERDGERYMIECKFHNIPVYTGLKEAMYTYARFLDVEKHGFTQPWIFTNTKFSEEAKKYAGCVGIKLTGWSYPEKEGIEVLLESKGLYPITILRIDKEVLDELVRAGLVFCRDVVSAGEEKLREIGLSAKKAREVIAEAKKVIG”: the “soluble on expression in E. coli” value is “soluble”.
In the case of “MEVKMPFVVFVKRSVRFPGKHSYMIGGKSLLEIIVSKLSNIGKVYVFTKDKDIICNGCSIEFDTTNGIITDSVLAAIDKFGTFFAVAGDMPLIKPELVSKMLSQYKGSPLFPRHMDGMLEPLFGIYTEDLYNALKEYLDKGGESLHAFLLTQPLQYYDIGSDDEVNFININYKSDIEKYRDLLVQLLEHHHHHH”, the “soluble on expression in E. coli” value is on record as “soluble”.
As to “MKSQPYTASSVTSTSTTHHPWMPISLREPPSKFQKLSTSDAAPLHNVCSSLKMKSTKPSRKRPSPKESDLPPLPSISTLFDSGSSSHSSSSSSNSSYGSYCQFSPEGSYTMYHWPMNYIPYVSPDVTITATTSTSTNAMASPDPIMLSSPPKQPTIEHTPINQPLFIQTADYPYDYSAPDPTGGYPSSATINANQLLLRPVPNGHV”, the “soluble on expression in E. coli” value is “not soluble”.
Under “MGSDKIHHHHHHMTAPFSTQLKRCTTCLLPETHETLVLDSEGVCNICRAQEVKAEINWEERLVHLDKLVAEYRGNYRYDCLIPFSGGKDSTWTLYYLMNRYPGIKPLVVRFNHGFLRPNLRANCDRVFRKLGVDVHDFSPSWKVVQRLMLQSFLEKGDFCWHCHTGIFAYPMQVAIKEQVPLIFWGEPSAEYTAYYNYDQAEEVDEERFNRYVNLGISAEDMLVRLDGYLDERDVEPFRYPPLKELRQLGYRSVCLGSYIPWDVKMQVGKIREELGWKGDLVENVPEDFNYEKIECWMQGVRDYIKYIKRGYTRPTHLAAIDLRNNRISKEEAKAMITQFEGRRPPSLDLFLDYVGLDEEQFYTIAMGHQVSPWQFDPDSIKSGPKTPDFEDWLRGDGLDLVDAEDQLGRWADSCSSCSSSSSCSGG” stands “not soluble”; under “MENVEKRLIQLFTTYLNKAKHHMQGGSDMPNELVIGLHCRGEFESHRSWMQPRVQRGLEERMLFSSHKRAQIYKEAATSSLVAASSAPGEVREG”, “soluble”.
Turning to “YEGEKSVVVPVSATYKELHKLMEKEFKGKEFSVVDYDDDETILLIAVQSDKLYGTYYQFDTRTKKFTLLYDLMPQLKEEDMAEMRPIKFKSRDGLTIHGFITLPKAALEGKKVPLIVNPHGGPQGIRDSWGFNPETQLFASRGYATLQVNFRISGGYGKEFLRAGFKQIGRKAMDDVEDGVRYAISQGWVDPDRIAIYGASHGGYATLMGLVKTPDLYACGVDYVGVSNIYTFFDSFPEYWKPFKEMVKEIWYDLDNPEEAAIAKEVSPFFQIDKINKPLFVVQGANDPRVNINESDQIVTALRARGFEVPYMVKYNEGHGFHREENSMELYRAMLGFFAKHLK”, the “soluble on expression in E. coli” value is “not soluble”.
As to “TWILTADSPSLLGTVDVVTRYLFEQRCYVTEHHSFDDRLAQRFFIRVEFRAGDGFDEASFRAGLAERVAPFGMRTELTAPGYRSQVAIMVSKADHCLNDLLYRQRIGQLPMDVVAVISNHPDLEPLARWHGIPYHHFPLDPNDKPAQEARVWQVLEESGAELVILARYMQVLSPELCRRLDGWAINIHHSLLPGFKGAKPYHQAYQKGVKLVGATAHYINNDLDEGPIIAQGVETVDHAHYPEDLIAKGRDIECLTLARAVGYHIERRVFLNANRTVVL”, the “soluble on expression in E. coli” value is on record as “not soluble”.
For “MAHHHHHHMKYTEITIDDGAYAKIFMHSIKYSCDDVCGILIGKYLSSNEKKKKCLITNYIPLFHTHILSPYLNLAFTLVENYYKDKDERIIGYFHISSDDSKNSDIENIKVCELISEKLIKNYNDAFVCLLEFSKYVNDEDNCLNIFMKNDKSNWEKGNVVISNKNKEFLKKNISNQHYLNIYDFDDHLNSMKCDFMNPDLFNNVS”, the “soluble on expression in E. coli” value is listed as “not soluble”.
“MGSDKIHHHHHHMENLIKIDTVDQYNKMFGLETLHPLVSVVDLSKSETWPTNFRVNYGIYGLFLKDTKCGDIRYGRQYYDYQEGTVVGFAPGQVTGIELKDGTRPLAHGLLFHPDLIRGTALGRDIKRYSFFSYESNEALHLSEEEKGIFVDCLRKIQIELEHSIDKHSKRLIAMNIELLLDYCLRFYDRQFTTRAETNKDVLVRFERLLDEYLQSDLLRQEGLPTVRYFAEKICLSPNYFGDLIKKETGKTAQENIQDRIISLAKEWIVGTNKTVSQIAYDLGFQYSQHFSRIFKKTVGCTPNEYRKSQMS”: the “soluble on expression in E. coli” value is “not soluble”.
Turning to “MGHHHHHHSHYGSLNPKAITISQYGEPFVVGTSRVVEIIRKLRERFGEVRIDIQTNGTLLEPEILGSEADIVMISLDAGSRESYAEITGKDFFERVVKNIEKMSEHTYTVVRTVFMPGINDEELERIAEIASQADELFLQPLSIYRENTELLKRLDVERAESLGDYLQTAYRLSEIASVRIPGCLLLNMRWFLREFEIGEL”, the “soluble on expression in E. coli” value is recorded as “not soluble”.
As to “MAHHHHHHMADDEPEYREAANPIEAFIDCARYDEPGDAEALRTLLSNSPSFLNSQDEQGRTALHVAAANGRLKVLETLLGYNPTPDVPNNEGNTALHFAALNNQTAAARLLLRHGWRASARNAFNKTPIQLIYGKQFEDMELLLLGHDDELEQFSGQASQAARGPAVVNEATVQQQPAVEAERATNAEQPRVNPVQKEQESDPTTLLGSVGVDEIE”, the “soluble on expression in E. coli” value is “soluble”.
